Data: publication PMC3600295

Legend:
[1] = target: T1, human alpha-thrombin (Homo sapiens, UniProt P00734;P00734 315-363;364-622); assay: potentiometric aptasensor; SWCNT transducer; LOD 80 nM, 8.03 mV/decade (not a Kd); PBS listed as reagent; salt, pH and temperature of the potentiometric assay not given in the material
[2] = target: T1, human alpha-thrombin; assay: potentiometric aptasensor; PANI transducer; LOD 71 nM, 2.97 mV/decade (not a Kd); PBS listed as reagent; salt, pH and temperature of the potentiometric assay not given in the material

| Binder | binding result [1] | binding result [2] |
| --- | --- | --- |
| GGTTGGTGTGGTTGG (structured_DNA, 5'-NH2, coupled to SWCNT carboxyl groups) [TBA 15-mer, 5'-NH2 (SWCNT sensor)] | binds |  |
| GGTTGGTGTGGTTGG (structured_DNA, 5'-SH, coupled to polyaniline) [TBA 15-mer, 5'-SH (PANI sensor)] |  | binds |
